Measurements taken from US12404345B2, “Humanized antibodies against iRHOM2” (SCIRHOM GMBH, priority 2021, dated 2025).

Tested on: dog iRhom1
Assay: FACS binding on MEF-DKO-Dog-iR1-FL-WT-T7 cells
Details: antibody at 3 μg/ml
From the text: Next, iRhom1/2−/− DKO MEFs stably expressing a tagged form of rhesus monkey, cynomolgus monkey, dog or rabbit iRhom2 were generated in order to determine cross-reactivity of the antibodies of the invention with the respective orthologue of iRhom2. iRhom1/2−/− DKO MEFs stably expressing a tagged form of rhesus monkey, cynomolgus monkey, dog or rabbit iRhom1 were generated to confirm specificity for iRhom2 versus iRhom1 of these species.
In brief, on day 1, Phoenix-ECO cells (American Type Culture Collection, USA) were seeded on 6-well tissue culture plates (Greiner, Germany) in standard growth medium at 8×10^5 cells per well and kept overnight at 37° C., 5% CO2. On day 2, the medium was replaced by fresh medium supplemented with chloroquine (Sigma-Aldrich, USA) at a final concentration of 25 μM. Applying the calcium phosphate method, cells were transfected with 2 μg/ml of pMSCV (Clontech, USA) empty vector, pMSCV-rhesus-iR2-FL-WT-T7 encoding rhesus monkey iRhom2 full length wild type C-terminally tagged with 3 consecutive copies of the T7 epitope, pMSCV-cyno-iR2-FL-WT-T7 encoding cynomolgus monkey iRhom2 full length wild type C-terminally tagged with 3 consecutive copies of the T7 epitope, pMSCV-dog-iR2-FL-WT-T7 encoding dog iRhom2 full length wild type C-terminally tagged with 3 consecutive copies of the T7 epitope or pMSCV-rabbit-iR2-FL-WT-T7 encoding rabbit iRhom2 full length wild type C-terminally tagged with 3 consecutive copies of the T7 epitope, respectively, and were kept at 37° C., 5% CO2. After 7 hours, the transfections were stopped by replacing cell supernatants with standard growth medium lacking chloroquine, and cells were incubated at 37° C., 5% CO2 to allow virus production overnight. In parallel, immortalized iRhom1/2−/− DKO MEFs as target cells for retroviral infection were seeded on 6-well tissue culture plates (Greiner, Germany) in standard growth medium at 1×10^5 cells per well and were also kept overnight at 37° C., 5% CO2. On day 3, the supernatants of Phoenix-ECO cells releasing pMSCV, pMSCV-rhesus-iR2-FL-WT-T7, pMSCV-cyno-iR2-FL-WT-T7, pMSCV-dog-iR2-FL-WT-T7 or pMSCV-rabbit-iR2-FL-WT-T7 ecotrophic virus, respectively were collected, filtered with 0.45 μm CA filters, and supplemented with 4 μg/ml of polybrene (Sigma-Aldrich, USA). Upon removal of medium from the immortalized iRhom1/2−/− DKO MEFs, the virus containing supernatants were added to the target cells for 4 hours at 37° C., 5% CO2 for first infection. Simultaneously, Phoenix-ECO cells were re-incubated with fresh medium, which, after another 4 hours, was filtered and used for the second infection of the respective target cell populations, again in the presence of 4 μg/ml of polybrene. Likewise, a third, but overnight infection cycle was performed. On day 4, virus containing cell supernatants were replaced by fresh standard growth medium. From day 5 onwards, cells were grown in the presence of 2 mg/ml of geneticin (G418, Thermo Fisher Scientific, USA) for the selection of immortalized MEF-DKO-EV control cells stably infected with pMSCV empty vector, pMSCV-rhesus-iR2-FL-WT-T7 cells stably expressing rhesus monkey iRhom2 full length wild type C-terminally tagged with 3 consecutive copies of the T7 epitope, pMSCV-cyno-iR2-FL-WT-T7 cells stably expressing cynomolgus monkey iRhom2 full length wild type C-terminally tagged with 3 consecutive copies of the T7 epitope, pMSCV-dog-iR2-FL-WT-T7 cells stably expressing dog iRhom2 full length wild type C-terminally tagged with 3 consecutive copies of the T7 epitope or pMSCV-rabbit-iR2-FL-WT-T7 cells stably expressing rabbit iRhom2 full length wild type C-terminally tagged with 3 consecutive copies of the T7 epitope, respectively. Upon propagation, cells were stocked for future usage. In parallel, iRhom1/2−/− DKO MEFs stably expressing a tagged form of rhesus monkey, cynomolgus monkey, dog or rabbit iRhom1 were generated in an analogous manner. […]

| Molecule | binding to dog iRhom1 on MEF-DKO-Dog-iR1-FL-WT-T7 cells |
| --- | --- |
| 16-B-03: humanized antibody binding human iRhom2; HCVD SEQ ID NO 1, LCVD SEQ ID NO 5 (antibody, V domains shown, antibody sequences) VH: QVTLRESGPALVKPTQTLTLTCTFSGFSLSTFALGVGWIRQPPGKALEWLAHIWWDDDKYYNPALKSRLTISKDTSKNQVVLTITNMDPVDTATYYCARITTYYYGMDYWGQGTLVTVSS VL: EIVMTQSPDFQSVTPKEKVTITCRASQSIGNHLHWYQQKPDASPKLLIKYASQSISGVPSRFSGSGSGTDFTLTINSLEAEDAATYFCQQSYQWPLTFGQGTKLEIK | no significant binding |
| 16-B-07: humanized antibody binding human iRhom2; HCVD SEQ ID NO 17, LCVD SEQ ID NO 21 (antibody, V domains shown, antibody sequences) VH: QVTLRESGPALVKPTQTLTLTCTFSGFSLSTFALGVGWIRQPPGKALEWLAHIWWDEDKYYNPALKSRLTISKDTSKNQVVLTITNMDPVDTATYYCARITTYYYGMDYWGQGTLVTVSS VL: EIVMTQSPDFQSVTPKEKVTITCRASQSIGNHLHWYQQKPDASPKLLIKYASQSISGVPSRFSGSGSGTDFTLTINSLEAEDAATYFCQQSYQWPLTFGQGTKLEIK | do not recognize dog iRhom1 |
| 16-B-05: humanized antibody binding human iRhom2; HCVD SEQ ID NO 9, LCVD SEQ ID NO 13 (antibody, V domains shown, antibody sequences) VH: QVTLRESGPALVKPTQTLTLTCTFSGFSLSTFALGVGWIRQPPGKALEWLAHIWWDEDKYYNPALKSRLTISKDTSKNQVVLTITNMDPVDTATYYCARITTYYYGMDYWGQGTLVTVSS VL: EIVMTQSPDFQSVTPKEKVTITCRASQSIGNHLHWYQQKPDASPKLLIKYASQSISGVPSRFSGSGSGTDFTLTINSLEAEDAATYFCQQSYNWPLTFGQGTKLEIK | do not recognize dog iRhom1 |
| 23-B-04: humanized antibody binding human iRhom2; HCVD SEQ ID NO 25, LCVD SEQ ID NO 29 (antibody, V domains shown, antibody sequences) VH: QVTLRESGPALVKPTQTLTLTCTFSGFSLSTFGMGVGWIRQPPGKALEWLAHIWWDDEKYYNSALKSRLTISKDTSKNQVVLTITNMDPVDTATYYCARISNYGSNYWYFNVWGQGTLVTVSS VL: AIQLTQSPSSLSASVGDRVTITCRASSSVSYMYWYQQKPGKAPKVLIYDTSNLASGVPSRFSGSGSGTDYTLTISSLQPEDFATYYCQQWNAYPLTFGQGTKLEIK | do not recognize dog iRhom1 |
| 42-B-04: humanized antibody binding human iRhom2; HCVD SEQ ID NO 41, LCVD SEQ ID NO 45 (antibody, V domains shown, antibody sequences) VH: QVTLRESGPALVKPTQTLTLTCTFSGFSLSTFGRGVGWIRQPPGKALEWLAHIWWDDEKYYNSALKSRLTISKDTSKNQVVLTITNMDPVDTATYYCARIQNYGSNYWYFDVWGQGTLVTVSS VL: AIQLTQSPSSLSASVGDRVTITCRASSRISYMFWYQQKPGKAPKVLIYDTSNLASGVPSRFSGSGSGTDYTLTISSLQPEDFATYYCQQWNAYPLTFGQGTKLEIK | do not recognize dog iRhom1 |
| 42-B-02: humanized antibody binding human iRhom2; HCVD SEQ ID NO 33, LCVD SEQ ID NO 37 (antibody, V domains shown, antibody sequences) VH: QVTLRESGPALVKPTQTLTLTCTFSGFSLSTFGRGVGWIRQPPGKALEWLAHIWWDDEKYYNSALKSRLTISKDTSKNQVVLTITNMDPVDTATYYCARIQNYGSNYWYFDVWGQGTLVTVSS VL: AIQLTQSPSSLSASVGDRVTITCRASSRISYMFWYQQKPGKAPKVLIYDTSNLASGVPSRFSGSGSGTDYTLTISSLQPEDFATYYCQQWNSYPLTFGQGTKLEIK | do not recognize dog iRhom1 |
